In PMC3688963, “Biochemical Characterization of Hypothetical Proteins from Helicobacter pylori” (PLoS ONE, 2013):

Tested on: CC(=O)Oc1ccc([N+](=O)[O-])cc1
Assay: purified protein
Details: 100 mM sodium acetate pH 6.0, 30°C

Substance: HP0310 (Helicobacter pylori 26695)
- Km: 180 ± 50 µM
- Vmax: 37400 µM/min
- kcat: 20.1 ± 0.917 s⁻¹
- kcat/Km: 112000 M⁻¹ s⁻¹
